This series concerns the molecule itself. Put plainly: SEC. A general note: SEC sorts molecules by how far they enter the pores of the column.

B1: apoNC1 (heme-free DGCR8 construct NC1, a.a. 276-751) (domain or fragment, human, UniProt Q8WYQ5 276-751, looked up)
chain: DGETSVQPMMTKIKTVLKSRGRPPTEPLPDGWIMTFHNSGVPVYLHRESRVVTWSRPYFLGTGSIRKHDPPLSSIPCLHYKKMKDNEEREQSSDLTPSGDVSPVKPLSRSAELEFPLDEPDSMGADPGPPDEKDPLGAEAAPGALGQVKAKVEVCKDESVDLEEFRSYLEKRFDFEQVTVKKFRTWAERRQFNREMKRKQAESERPILPANQKLITLSVQDAPTKKEFVINPNGKSEVCILHEYMQRVLKVRPVYNFFECENPSEPFGASVTIDGVTYGSGTASSKKLAKNKAARATLEILIPDFVKQTSEEKPKDSEELEYFNHISIEDSRVYELTSKAGLLSPYQILHECLKRNHGMGDTSIKFEVVPGKNQKSEYVMACGKHTVRGWCKNKRVGKQLASQKILQLLHPHVKNWGSLLRMYGRESSKMVKQETSDKSVIELQQYAKKNKPNLHILSKLQEEMKRLAEEREETRK
As to B1, the binding result is given as “binds”.

(Values after article PMC4788496 (Chemistry & biology, 2015).)
